The values that follow are results of earlier work, collected in publication PMC6784060.

This data set deals with Beclin-1 BH3 (Homo sapiens) (UniProt Q14457).
UniProt Q14457, sequence (Q14457 107-127): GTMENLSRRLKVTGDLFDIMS

Turning to Bcl-xL (from UniProt Q07817), the Kd (as a rule, the equilibrium constant for the complex coming apart) was 1700 nM.
